Reference: paper PMC8880691, “Impact of Linker Modification and PEGylation of Vancomycin Conjugates on Structure-Activity Relationships and Pharmacokinetics” (Pharmaceuticals, 2022)
Structures can show the parent of a compound that is named as a salt.

Legend:
[1] = Molecular imaging (scintigraphy) of 125I-labeled compounds; assay type: in vivo, female Wistar rats; settings: rat
Procedure: (§1) Molecular imaging and biodistribution studies were performed for VAN1 and VAN2, as well as for VAN:PEG1 and VAN:PEG2, using female Wistar rats.
(§2) For biodistribution and pharmacokinetic studies, compounds were radiolabeled with ^125I. The previously described method for the insertion of an additional D-tyrosine to the N-terminus of the peptide moiety was used to enable […] substitution for VAN1 and VAN2 [11]. For the PEGylated derivatives, VAN:PEG1 and VAN:PEG2, tyrosine-modified FU002y was used to synthesize the intermediate. Radiolabeling was performed using the chloramine T method as previously described. Thus, a 1 mM stock solution of the respective compound in phosphate buffer/dimethyl sulfoxide was prepared. The required amount of the radionuclide (^125I) was added to a mixture of 25 μL of the stock solution and 25 μL of phosphate buffer (0.25 mM; pH = 7.5). Purification of the labeled compounds was performed by semi-preparative HPLC. Analysis was conducted by radio HPLC (Agilent 1100 series) using a Chromolith® Performance RP-18e, 100 × 3 mm column, applying a linear gradient of 0.1% TFA in water (eluent A) to 0.1% TFA in acetonitrile (eluent B) within 5 min (flow rate, 2 mL/min; UV absorbance, λ = 214 nm; γ-detection). Animals were anaesthetized by isoflurane inhalation, and appropriate amounts of the radiolabeled conjugate dissolved in 100 µL 0.9% NaCl solution were injected into the tail vein. Cumulative scintigraphic images were taken after 10 min and 1, 2, 3, 5 and 24 h. For the biodistribution studies, animals were sacrificed at the indicated points in time. The activity of the weighed organs was measured in comparison with standards. Tissue-associated activity was related to the total injected dose (ID) and expressed as a percentage of the total injected dose per gram of tissue (%ID/g). The data were calculated afterwards to obtain the respective organ/organ or organ/blood ratios.

[2] = tested on: vanB vancomycin-resistant enterococci; experiment: Microdilution assay on vancomycin-resistant strains of the vanB type; assay type: cell-based
Procedure: (§3) The conjugates were tested in microdilution assays according to CLSI (Clinical and Laboratory Standards Institute) and EUCAST (European Committee on Antimicrobial Susceptibility Testing) guidelines on both vancomycin-sensitive and-resistant Gram-positive bacterial strains.
(§4) Antimicrobial activity assays were performed by microdilution and conducted in accordance with CLSI and EUCAST guidelines. Serial dilutions in MHB II (cation adjusted) were performed on 96-well plates using water-stock solutions of the compounds at different concentrations. Overnight cultures of bacterial strains were used to obtain bacteria in the logarithmic growth phase. Bacteria were adjusted to a McFarland corresponding to 1 × 10^8 cfu/mL. After a 1:100 dilution, the culture broth was loaded onto the 96-well polypropylene plates, resulting in a final bacterial concentration of 5 × 10^5 cfu/mL. Plates were then incubated at 37 ± 1 °C for 18–24 h. The MICs were assessed as the lowest concentration without visible growth.

B. subtilis DSM10 = experiment: microbe, parasite or virus in culture; assay type: cell-based
Procedure: as §3, §4
Table S1. Minimum inhibitory concentration against B. subtilis DSM10.
activity. Shown is the median of at least three independent measurements (range is shown in brackets).
Compound Minimum Inhibitory Concentration
against B. subtilis DSM10 [mg/L] […]
[mg/L] [% hemolysis] [% hemolysis] [% hemolysis] […]

[3] = Biodistribution study with excised organs, 125I-labeled compounds; assay type: in vivo, female Wistar rats; settings: rat
Procedure: as §1
To further compare the two modification strategies, the biodistribution profiles of VAN1, VAN2 and vancomycin were compared using excised organs. This study confirms significant liver accumulation in most cases.
as §2

[4] = tested on: vanC vancomycin-resistant enterococci; experiment: Microdilution assay on vancomycin-resistant strains of the vanC type; assay type: cell-based; settings: resistant strains of the vanC type (low-level resistant)
Procedure: as §3, §4

erythrocytes = assay type: cell-based, human
Procedure: To determine the toxicity to red blood cells and thus confirm the selectivity to bacteria, a hemoglobin release assay was carried out with VAN1, VAN2 and VAN3, as well as the PEGylated conjugate, VAN:PEG1.
To exclude lytic activity and to evaluate the toxicological potential of the conjugates, hemolysis studies were performed as previously described. Briefly, fresh heparinized blood of four male, fasted volunteers was taken, and erythrocytes were purified by centrifugation of the blood at 2500 rpm for 10 min. The supernatant was removed, and the resulting pellet was washed with PBS at least three times, until the supernatant remained clear. The conjugates were serially diluted from stock solutions (in phosphate-buffered saline) in a 96-well plate at concentrations ranging from 120 µg/mL to 0.23 µg/mL (VAN1) or 16 µg/mL to 0.03 µg/mL (VAN2, VAN3 and VAN:PEG1), resulting in a final volume of 50 µL. A solution of Triton®X-100 in PBS was used as positive control. Finally, 50 µL of the washed erythrocytes was loaded into each well. After incubation for 30 min at 37 °C, 75 µL PBS was added to each well, and the plates were centrifuged for 5 min at 4000 rpm. A total of 50 µL of the supernatants was then transferred into a new polystyrene, flat-bottom 96-well plate, and the absorbances were measured at 554 nm using a Tecan microplate reader. Hemolysis was calculated as follows: Hemolysis %=100×Asubstance−Aneg. control/ATriton−Aneg. control
The negative control was erythrocytes, treated as described but using only PBS.

[5] = 10 min post injection, tail vein, from %ID/g of excised organs

CC(C)C[C@H](C(=O)N[C@H]1C(=O)N[C@@H](CC(N)=O)C(=O)N[C@H]2C(=O)N[C@H]3C(=O)N[C@H](C(=O)N[C@H](C(=O)O)c4cc(O)cc(O)c4-c4cc3ccc4O)[C@H](O)c3ccc(c(Cl)c3)Oc3cc2cc(c3O[C@@H]2O[C@H](CO)[C@@H](O)[C@H](O)[C@H]2O[C@H]2C[C@](C)(N)[C@H](O)[C@H](C)O2)Oc2ccc(cc2Cl)[C@H]1O)N(C)C(=O)CCOCCOCCOCCOCCOCCOCCOCCOCCOCCOCCOCCOCCNC(=O)CCN1C(=O)CC(SC[C@H](NC(=O)[C@H](CCCNC(=N)N)NC(=O)[C@H](CCCNC(=N)N)NC(=O)[C@H](CCCNC(=N)N)NC(=O)[C@H](CCCNC(=N)N)NC(=O)[C@H](CCCNC(=N)N)NC(=O)[C@@H](N)CCCNC(=N)N)C(N)=O)C1=O (stereo partly drawn) [VAN2]
pharmacokinetic behavior by molecular imaging ([1]; in vivo): rapid liver accumulation can still be observed, in addition to renal elimination
overcoming the molar-resistance breakpoint (EUCAST), vanB type [2]: able to overcome the molar-resistance breakpoint
Minimum Inhibitory Concentration against B. subtilis DSM10 (B. subtilis DSM10): 2 (1–4) mg/L
Ratio Kidney/Blood ([3]; in vivo): 10.09
Ratio Liver/Blood ([3]; in vivo): 9.25
Ratio Liver/Kidney ([3]; in vivo): 0.92
overcoming the molar-resistance breakpoint (EUCAST), vanC type [4]: able to overcome the molar-resistance breakpoint
hemolytic activity (erythrocytes): None of the compounds showed significant hemolytic activity

CC(C)C[C@H](C(=O)N[C@H]1C(=O)N[C@@H](CC(N)=O)C(=O)N[C@H]2C(=O)N[C@H]3C(=O)N[C@H](C(=O)N[C@H](C(=O)O)c4cc(O)cc(O)c4-c4cc3ccc4O)[C@H](O)c3ccc(c(Cl)c3)Oc3cc2cc(c3O[C@@H]2O[C@H](CO)[C@@H](O)[C@H](O)[C@H]2O[C@H]2C[C@](C)(N)[C@H](O)[C@H](C)O2)Oc2ccc(cc2Cl)[C@H]1O)N(C)C(=O)CN1C(=O)CC(SC[C@H](NC(=O)[C@H](CCCNC(=N)N)NC(=O)[C@H](CCCNC(=N)N)NC(=O)[C@H](CCCNC(=N)N)NC(=O)[C@H](CCCNC(=N)N)NC(=O)[C@H](CCCNC(=N)N)NC(=O)[C@@H](N)CCCNC(=N)N)C(N)=O)C1=O (stereo partly drawn) [VAN3]
Minimum Inhibitory Concentration against B. subtilis DSM10 (B. subtilis DSM10): < 0.125 mg/L
hemolytic activity (erythrocytes): None of the compounds showed significant hemolytic activity

CN[C@H](CC(C)C)C(=O)N[C@H]1C(=O)N[C@@H](CC(N)=O)C(=O)N[C@H]2C(=O)N[C@H]3C(=O)N[C@H](C(=O)N[C@H](C(=O)O)c4cc(O)cc(O)c4-c4cc3ccc4O)[C@H](O)c3ccc(c(Cl)c3)Oc3cc2cc(c3O[C@@H]2O[C@H](CO)[C@@H](O)[C@H](O)[C@H]2O[C@H]2C[C@](C)(N)[C@H](O)[C@H](C)O2)Oc2ccc(cc2Cl)[C@H]1O [Vancomycin, vancomycin hydrochloride]
pharmacokinetic behavior by molecular imaging ([1]; 125I-labeled, tail vein injection, scintigraphic images 10 min to 24 h): fast renal elimination
MIC (B. subtilis DSM10; Bacillus subtilis, DSM10, read-out: Minimum Inhibitory Concentration against B. subtilis DSM10): 0.25 µg/mL
Ratio Kidney/Blood [3, 5]: 2.16
Ratio Liver/Blood [3, 5]: 0.36
Ratio Liver/Kidney [3, 5]: 0.17

CC(C)C[C@H](C(=O)N[C@H]1C(=O)N[C@@H](CC(N)=O)C(=O)N[C@H]2C(=O)N[C@H]3C(=O)N[C@H](C(=O)N[C@H](C(=O)O)c4cc(O)cc(O)c4-c4cc3ccc4O)[C@H](O)c3ccc(c(Cl)c3)Oc3cc2cc(c3O[C@@H]2O[C@H](CO)[C@@H](O)[C@H](O)[C@H]2O[C@H]2C[C@](C)(N)[C@H](O)[C@H](C)O2)Oc2ccc(cc2Cl)[C@H]1O)N(C)C(=O)CCCCCCCCCCN1C(=O)CC(SC[C@H](NC(=O)[C@H](CCCNC(=N)N)NC(=O)[C@H](CCCNC(=N)N)NC(=O)[C@H](CCCNC(=N)N)NC(=O)[C@H](CCCNC(=N)N)NC(=O)[C@H](CCCNC(=N)N)NC(=O)[C@@H](N)CCCNC(=N)N)C(N)=O)C1=O (stereo partly drawn) [VAN1]
pharmacokinetic behavior by molecular imaging ([1]; in vivo): accumulates quickly in the liver
Minimum Inhibitory Concentration against B. subtilis DSM10 (B. subtilis DSM10): 1 (0.5–1) mg/L
Ratio Kidney/Blood ([3]; in vivo): 2.22
Ratio Liver/Blood ([3]; in vivo): 10.13
Ratio Liver/Kidney ([3]; in vivo): 4.47
hemolytic activity (erythrocytes): None of the compounds showed significant hemolytic activity
